Target: T1, mature human glial cell line-derived neurotrophic factor (hGDNF), CHO cell-expressed (human, UniProt P39905 78-211, glycosylated (N-linked sugar, about 4.5 kDa))
T1 construct: The native protein is a disulfide-bonded homodimer (44 kDa on non-reducing gels); also called mature GDNF; 22 kDa band
T1 chain: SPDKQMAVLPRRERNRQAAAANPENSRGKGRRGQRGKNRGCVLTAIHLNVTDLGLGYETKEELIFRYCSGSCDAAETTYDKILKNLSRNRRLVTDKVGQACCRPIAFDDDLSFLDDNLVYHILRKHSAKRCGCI
Assay: purification from CHO conditioned medium, Western blot and N-terminal sequencing; disulfide-bonded dimer
Method: The following process describes the purification of CHO-expressed GDNF and a CHO-derived clipped GDNF homodimer, from one liter of conditioned media. Because of significant protease action in the CHO medium, clipping the chain at residue 31, the procedure may include the use of a protease inhibitor during purification.
Serum free conditioned media was made 20 mM 2-[N-Morpholino] ethane sulfonate (MES), pH 6.0, by adding one fiftieth volume of 1 M MES, pH 6.0. Twenty five milliliters of SP Sepharose Big Bead resin (Pharmacia), equilibrated with 20 mM MES, pH 6.0, was added and stirred at 4° C. for one hour. The resin was collected by allowing it to settle and decanting off the conditioned media. The decanted media was filtered through a fritted disc filter to recover any unsettled resin. […] Protein was eluted with a 300 ml gradient from A buffer to 1.0 M NaCl, 20 mM MES, pH 6.0 (B buffer), at a flow rate of 0.2 column volumes/minute with absorbance monitored at 280 nm. […] The presence of GDNF in the fractions was detected by Western blotting analysis. […]
Fractions containing GDNF from Step 2 were resolublized in one milliliter of 0.15 M NaCl, 10 mM Tris, pH 8.0, and applied to a 0.75×7.5 cm TSK-Gel 5WP high performance S column (Toso Haas). […] One minute fractions were collected with absorbance measured at 280 nm. […]

- binding result: binds
B1: [Arg32-Ile134] truncated GDNF protein, CHO cell-derived (ligand)
chain: RGQRGKNRGCVLTAIHLNVTDLGLGYETKEELIFRYCSGSCDAAETTYDKILKNLSRNRRLVTDKVGQACCRPIAFDDDLSFLDDNLVYHILRKHSAKRCGCI
modifications: glycosylated (N-linked and O-linked sugars)
notes: It forms a disulfide-bonded homodimer (36 kDa) or a heterodimer with mature GDNF (40 kDa); A later purification also found a [Lys37-Ile134] form; also called clipped GDNF; 18 kDa band
